Where no end group is shown, it is not given here.
How the values were obtained:
[1] = target: the molecule itself; assay: large zone size exclusion chromatography, fit to monomer-dimer model, 4 °C
Protocol: The data points are the recorded experimental values of σw, at each loading concentration, and the solid line illustrates the best fit of the data to a monomer-dimer stoichiometric model. Non-linear least squares analysis was used to obtain the best fit according to the procedure. To verify that the data was fit to the appropriate stoichiometric model, a residual plot, which plots the difference between the observed fₘ and the calculated fₘ versus log [loaded protein], was prepared. The elution volume of each sample was converted to the weight average partition coefficient, which was plotted as a function of GB1-Ymbs38 concentration loaded onto the chromatography column. The Kd value was calculated from the best fit of the data to a monomer-dimer stoichiometric model, represented on the plot as a solid line. The plot shown corresponds to one of the three large zone chromatography trials performed on the apo-GB1-Ymbs38 protein variant.
The fitting of the data yielded the equilibrium association constants for each protein variant, which were subsequently converted to dissociation constants, Kd. Residual points were obtained by subtracting the fraction of monomer calculated by the best fit from the actual experimental value. Residuals were ploted against the log (loaded protein). […] Equilibrium association constants were used to calculate the Gibbs energy of assembly (ΔG°) through the equation: ΔG°=−RTlnKₐ₋Equilibrium association and dissociation constants, and the Gibbs free energy changes are shown in Table 6 for each GB1-Ymbs38 variant. A decrease in affinity between GB1-Ymbs38 monomers occurred upon mutation of the leucine and isoleucine residues or upon the removal of Zn(II), with the Zn(II) removal resulting in a larger decrease. The combination of Zn(II) removal and mutation of the aliphatic amino acids eliminated the ability of GB1-Ymbs38 monomer to self-associate.

[2] = target: the molecule itself; assay: large zone size exclusion chromatography (Shodex KW 803), one trial dated 6/9/06; non-linear least squares fit of the fraction of monomer to a monomer-dimer model; cell H5 'Equilibrium constant'; sum of squares 0.025076973; no unit in the cell, loaded concentrations are in M and the text gives Ka in M^-1
Protocol: A 5 mL aliquot of Zn(II)CopY was loaded onto a Shodex KW 803 column (total column volume is 15 mL) equilibrated in 50 mM Tris, pH 7.8, 150 mM NaCl, 0.05% β-mercaptoethanol. […] The measure of the apparent molecular weight of the protein at each concentration was calculated by correlating the elution volume of the leading edge with elution volumes of known molecular weight standards.
The plot of the change in apparent molecular weight versus the concentration of protein loaded onto the chromatography column provided an understanding of the process that occurred during the large zone chromatography experiment. The acquired data could be further manipulated in order to calculate the equilibrium dissociation constant for the GB1-Ymbs38 dimer. […] The data points are the recorded experimental values of σw, at each loading concentration, and the solid line illustrates the best fit of the data to a monomer-dimer stoichiometric model. […] To verify that the data was fit to the appropriate stoichiometric model, a residual plot, which plots the difference between the observed fₘ and the calculated fₘ versus log [loaded protein], was prepared. […] The Kd value was calculated from the best fit of the data to a monomer-dimer stoichiometric model, represented on the plot as a solid line.

[3] = target: the molecule itself; assay: large zone size exclusion chromatography, one of three trials; best fit of the weight average partition coefficient against log [loaded protein] to a monomer-dimer model; self-association
Protocol: The measure of the apparent molecular weight of the protein at each concentration was calculated by correlating the elution volume of the leading edge with elution volumes of known molecular weight standards.
The plot of the change in apparent molecular weight versus the concentration of protein loaded onto the chromatography column provided an understanding of the process that occurred during the large zone chromatography experiment. The acquired data could be further manipulated in order to calculate the equilibrium dissociation constant for the GB1-Ymbs38 dimer. The elution volume, Vₑ, was converted to the weight average partition coefficient, σw, which represented the fraction of solvent volume within the gel matrix that was accessible to the protein. […] The data points are the recorded experimental values of σw, at each loading concentration, and the solid line illustrates the best fit of the data to a monomer-dimer stoichiometric model. Non-linear least squares analysis was used to obtain the best fit according to the procedure. To verify that the data was fit to the appropriate stoichiometric model, a residual plot, which plots the difference between the observed fₘ and the calculated fₘ versus log [loaded protein], was prepared. […] The Kd value was calculated from the best fit of the data to a monomer-dimer stoichiometric model, represented on the plot as a solid line. […]

[4] = target: the molecule itself; assay: ESI-MS, declustering voltage 10 V
Protocol: A Waters Micromass ZMD quadrupole mass spectrometer was used for all experiments. The mass spectrometer was calibrated with cesium iodide. The temperature at the ion spray interface was kept at 40° C. A voltage of 2.0 kV at the tip of the inlet capillary needle was used to generate the electrospray. The cone voltage was set at 20 V and the extractor voltage was set at 10 V, resulting in a declustering voltage (ΔCS) of 10 V. Samples of protein were prepared in 10 mM ammonium acetate, pH 8.0, at concentrations of approximately 250 μM and were delivered at a flow rate of 50 μL/min into the ion source.
A 6× histidine tagged version of GB1 alone (lacking the Ymbs38 extension) was subjected to ESI-MS under the same conditions. […] Charged ions due to monomeric GB1 are shown labeled with the bolded numbers. The molecular mass derived from the +6 and +7 charge states is 8258 Da. (Calculated molecular mass of GB1 with the 6× histidine tag=8387 Da.).

[5] = target: T1, untagged Zn(II)GB1-Ymbs38 (6x histidine tag removed by thrombin) (streptococcal; E. hirae, UniProt P06654 228-282; Q47839 108-145, Zn(II) bound by the four cysteines of the Cys-x-Cys-xxxx-Cys-x-Cys site); assay: HIS-Select nickel affinity resin binding assay, SDS-PAGE
T1 construct: also called untagged GB1-Ymbs38; untagged wild-type Zn(II)GB1-Ymbs38; not shown: vector residues left after thrombin cleavage at Leu-Val-Pro-Arg-Gly-Ser
Text: Sigma® HlS-Select™ Nickel Affinity resin was used to assess dimerization between histidine-tagged and untagged proteins. Tagged and untagged versions of CopY were isolated as described above. The untagged version of GB1-Ymbs38 was isolated from the purified tagged protein by treatment with the Sigma® THROMBIN CleanCleave™ Kit. A thrombin cleavage site between the histidine tag and the start of the GB1-Ymbs38 protein allowed for easy removal of the tag. Dimerization reactions of tagged and untagged protein were performed in 50 mM Tris, pH 7.8, 300 mM NaCl. Approximately equilmolar amounts of each protein were mixed and incubated at 37° C. for 45 minutes to promote subunit interchange. The protein mixture was applied to 100 μL of drained HIS-Select resin that had been equilibrated in 50 mM Tris, pH 7.8, 300 mM NaCl in a Centricep spin column (Princeton Separations, Inc.) at room temperature. After 1 minute of constant agitation, the resin-protein mixture was centrifuged at 500×g for 30 seconds and the flow through was collected in a clean microfuge tube. The resin then was washed twice with 350 μL of 50 mM Tris, pH 7.8, 300 mM NaCl, and once with 50 mM Tris, pH 7.8, 300 mM NaCl, 20 mM imidazole. Each wash step was followed by centrifugation at 500×g for 30 seconds to remove excess liquid. […] Eluants were analyzed on 15% Tris-tricine SDS-PAGE stained with Coomassie brilliant blue R-250.

Binder	Ka [1]	Kd [1]	Ka [2]	Kd [3]	binding result [4]	binding result [5]
6x histidine tagged Zn(II)GB1-Ymbs38 fusion protein (other, streptococcal;E. hirae, UniProt P06654 228-282, looked up, Zn(II) bound by the four cysteines of the Cys-x-Cys-xxxx-Cys-x-Cys site, Calculated monomer mass 12.8 kDa (tagged); also called 6hGB1-Ymbs38; native Zn(II)GB1-Ymbs38; not shown: N-terminal 6xHis tag and thrombin site (Leu-Val-Pro-Arg-Gly-Ser) from the pET-14b vector) TYKLILNGKTLKGETTTEAVDAATAEKVFKQYANDNGVDGEWTYDDATKTFTVTEATLTQEDIQQIMKQLNKKEPVETIECNCIPGQCECKKQ	37000 M⁻¹	28 µM	40200 M⁻¹	–	–	–
6x histidine tagged apo (cysteine modified) GB1-Ymbs38 (other, streptococcal;E. hirae, UniProt P06654 228-282, looked up, Zn(II) removed (EDTA or acidification); the four cysteines of the metal binding motif carboxyamidomethylated with iodoacetamide, Calculated mass of the carboxyamidomethylated protein 12,992 Da; also called apo-GB1-Ymbs38; Apo-GB1-Ymbs38; not shown: N-terminal 6xHis tag and thrombin site (Leu-Val-Pro-Arg-Gly-Ser) from the pET-14b vector) TYKLILNGKTLKGETTTEAVDAATAEKVFKQYANDNGVDGEWTYDDATKTFTVTEATLTQEDIQQIMKQLNKKEPVETIECNCIPGQCECKKQ	10000 M⁻¹	51 µM	–	54 µM	–	–
6x histidine tagged GB1 (lacking the Ymbs38 extension) (other, streptococcal, UniProt P06654 228-282, looked up, also: 6x histidine tag, place not given here, Calculated mass with tag 8387 Da (8.4 kDa); Control without the CopY part; also called 6xhis tagged GB1; not shown: 6x histidine tag) TYKLILNGKTLKGETTTEAVDAATAEKVFKQYANDNGVDGEWTYDDATKTFTVTE	–	–	–	–	no binding (tested: approximately 250 µM)	no binding

Source: US20090111968A1 (DUQUESNE UNIVERSITY OF THE HOLY GHOST, published 2009)
